Tested on: T1, Bli1904II restriction endonuclease (Bacillus licheniformis)
T1 sequence: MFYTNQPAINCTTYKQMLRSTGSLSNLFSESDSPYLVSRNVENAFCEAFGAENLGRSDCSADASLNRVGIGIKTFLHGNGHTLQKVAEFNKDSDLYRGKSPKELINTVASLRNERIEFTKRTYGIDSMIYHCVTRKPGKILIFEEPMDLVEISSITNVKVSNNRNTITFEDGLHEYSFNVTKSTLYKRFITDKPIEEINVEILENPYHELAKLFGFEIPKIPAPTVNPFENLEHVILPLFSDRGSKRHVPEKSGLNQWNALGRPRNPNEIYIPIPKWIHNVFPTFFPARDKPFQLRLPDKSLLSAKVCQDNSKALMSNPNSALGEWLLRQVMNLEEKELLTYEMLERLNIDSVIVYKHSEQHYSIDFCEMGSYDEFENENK
Assay: cell_activity

| Substance | activity (transformants per ug DNA) (restriction of unmethylated plasmid in SJ1904, 6.4e3 in Bli1904II deletion strain MDT269, site inferred from cognate methylase) | activity (transformants per ug DNA) (methylated by M.Bli1904II at GCNGC (C5-cytosine type, position not stated), methylated plasmid not restricted in SJ1904, 7.2e3 in deletion strain MDT269) |
| --- | --- | --- |
| GCNGC (double strand) [pCJ791 plasmid GCNGC sites, unmethylated] | 17 | – |
| GCNGC (double strand) [pCJ791 plasmid GCNGC sites, M.Bli1904II-methylated] | – | 16000 |

Reference: patent US20100055739
